Experimental data published in the PETadex activity labels (doi:10.1021/bi00096a018).
Where a chain is given by its changes, count along the chain named.

B1: unnamed (protein)
chain: MRPPWYPLHTPSLAFPLLFLLLSLLGGGARAEGREDPQLLVRVRGGQLRGIRLKAPGGPVSAFLGIPFAEPPVGSRRFMPPEPKRPWSGVLDATTFQNVCYQNVDTLYPGFEGTEMWNPNRELSEDCLYLNVWTPYPRPASPTPVLIWIYGGGFQSGAASLDVYDGRFLAQVEGAVLVSMNYRVGTFGFLALPGSREAPGNVGLLDQRLALQWVQENIAAFGGDPMSVTLFGESAGAASVGMHILSLPSRSLFHRAVLQSGTPNGPWATVSAGEARRRATLLARLVGCPPGGAGGNDTELIACLRTRPAQDLVDHERHVLPQESIFRFSFVPVVDGDFLSDTPEALINTGDFQDLQVLVGVVKDEGSYFLVYGVPGFSKDNESLISRAQFLAGVRIGVPQASDLAAEAVVLHYTDWLHPEDPTHLRDAMSAVVGDHNVVCPVAQLAGRLAAQGARVYAYIFEHRASTLTWPLWMGVPHGYEIEFIFGLPLDPSLNYTTEERIFAQRLMKYWTNFARTGDPNDPRDSKSPQWPPYTTAAQQYVSLNLKPLEVRRGLRAQTCAFWNRFLPKLLSATDTLDEAERQWKAEFHRWSSYMVHWKNQFDHYSKQERCSDL
B2: unnamed (protein)
chain: B1 chain with D105N
B3: unnamed (protein)
chain: B1 chain with N103Y, Q155Y, R317W, F369G
B4: unnamed (protein)
chain: B1 chain with N103Q, Q155Y
B5: unnamed (protein)
chain: B1 chain with N103Y, Q155Y, R317W, F326L
B6: unnamed (protein)
chain: B1 chain with N103Y, Q155Y, R317W, F328Y
B7: unnamed (protein)
chain: B1 chain with N103Y, Q155Y, R317W, V331G
B8: unnamed (protein)
chain: B1 chain with N103Y, Q155Y
B9: unnamed (protein)
chain: B1 chain with N103Y, Q155Y, R317W, Y368F

Substrate: Acetylcholine
Conditions: pH 7; 22 °C

Protein	Km [µM]	kcat [s⁻¹]
B1	850	3500
B2	6100	2330
B3	75	383
B4	700	2670
B5	49	733
B6	58	650
B7	50	2670
B8	420	2670
B9	53	1130
